One molecule from patent publication CN114591427A (SHENZHEN LIGHT AND BIOTECHNOLOGY CO LTD; GUANGDONG PEOPLES …, dated 2022) can be followed below.

This test concerns the target T1, MPT32蛋白 in protein extracts of clinical samples of tuberculosis patients (结核分枝杆菌 (Mycobacterium tuberculosis), UniProt P9WIR7 40-325).
T1 construct: Native antigen detected by western blot in patient samples; also called 结核分枝杆菌MPT32蛋白; 抗原蛋白
T1 sequence (looked up): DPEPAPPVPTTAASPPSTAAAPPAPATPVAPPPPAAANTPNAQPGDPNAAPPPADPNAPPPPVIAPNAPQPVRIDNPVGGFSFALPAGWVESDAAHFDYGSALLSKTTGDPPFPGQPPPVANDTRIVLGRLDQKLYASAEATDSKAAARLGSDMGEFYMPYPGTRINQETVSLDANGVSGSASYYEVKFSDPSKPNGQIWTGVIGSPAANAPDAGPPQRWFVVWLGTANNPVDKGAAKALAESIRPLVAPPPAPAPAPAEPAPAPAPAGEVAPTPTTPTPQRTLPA
Briefly: western blot of protein extracts of clinical samples. In general terms: A western blot detects proteins with antibodies after separation by electrophoresis.

B1: 鼠抗MPT32蛋白单克隆抗体 (secreted by hybridoma cell line 13B12, CCTCC NO:C2021305) (antibody, V domains shown)
VH: QVQLQQSGAELVKPGASVKMSCKASGFTFTSYWINWVKQRPGQGLEWIGDLYPGRGITNYNEKFKPKATLTLDTSSSTAYMQLSSLTSEDSAVYYCSTGPYWGQGTILTVSS
VL: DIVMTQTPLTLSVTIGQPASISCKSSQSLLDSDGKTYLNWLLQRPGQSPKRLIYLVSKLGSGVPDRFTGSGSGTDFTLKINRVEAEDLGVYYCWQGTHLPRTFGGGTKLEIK
notes: also called 鼠抗MPT32单克隆抗体; MPT32蛋白抗体
B1: the binding result was “binds”.
